Laboratory results from US20240052052A1 (ANTENGENE BIOLOGICS, published 2024).

T1: human CD24 (human, UniProt P25063 27-59, heavily glycosylated, GPI-anchored (as described in the background))
T1 construct: whole, on cells; Target of all cell-based FACS assays; also called hCD24; Cluster of differentiation 24
T1 chain (looked up): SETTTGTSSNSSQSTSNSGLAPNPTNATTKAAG


Key:
human CD24 [1] = target: T1, human CD24; assay: FACS, 5637 cells
Method: (§1) Screening & Expansion: The subcloning plates were screened by Acumen assay and the subclones with good binding ability were expanded to 24-wells for confirmation tests. The specificity and cross-reactivity of these subclones were confirmed with FACs analysis. […] Fluorescent dye-conjugated secondary antibody was used to detect the binding of the primary antibody with the cells. Median fluorescence intensity (MFI) was measured by FACs analysis.

human CD24 [2] = target: T1, human CD24; assay: FACS, MCF7 cells
Method: as §1

human CD24 [3] = target: T1, human CD24; assay: FACS, 5637 cells
Method: (§2) Sequences of some of antibodies from Table 1 were selected to generate and produce human IgG4 chimeric antibodies. […] The protocol for FACs analysis is described as follows: [0536] a. Digested cells using TrypLE™ Express Enzyme (IX); Centrifuged the harvested cells at 400 g for 5 min and discarding the supernatant. [0537] b. Washed the cells 2 times with cold FACS buffer by centrifuging at 400 g for 5 min and discarding the supernatant. [0538] c. […] Incubate at […] for 1 h. [0539] d. Washed the cells twice by using the condition in step b. Resuspended the cells with 100 μl/well diluted 2nd antibody, incubated at 4 degree for 1 h in the dark. [0540] e. Washed the cells twice by using the condition in step b. Resuspended the cells with 100 μl/well cold FACS buffer. Kept the cells in dark for FACS analysis.

human CD24 [4] = target: T1, human CD24; assay: FACS, MCF7 cells
Method: as §2

human CD24 [5] = target: T1, human CD24; assay: FACS, A549 cells
Method: as §2

human CD24 [6] = target: T1, human CD24; assay: FACS, Nalm1 cells
Method: as §1

human CD24 [7] = target: T1, human CD24; assay: FACS, H1975 cells
Method: as §1

human CD24 [8] = target: T1, human CD24; assay: FACS, Nalm1 cells
Method: as §2

human CD24 [9] = target: T1, human CD24; assay: FACS, H1975 cells
Method: as §2

human CD24 [10] = target: T1, human CD24; assay: FACS, HT-29 cells
Method: as §2

human CD24 [11] = target: T1, human CD24; assay: FACS, 293F-hCD24 cells
Method: as §1

human CD24 [12] = target: T1, human CD24; assay: FACS, 293F-hCD24 cells
Method: as §2

human CD24 [13] = target: T1, human CD24; assay: FACS, MDA-MB-468 cells
Method: as §2

human CD24 [14] = target: T1, human CD24; assay: FACS, CHOK1-hCD24 cells
Method: as §2

human CD24 [15] = target: T1, human CD24; assay: flow cytometry, HT-29 and Nalm6 cells
Method: Briefly, HT-29 or Nalm6 cells were washed three times using PBS and firstly incubated with humanized variants. After three times washing, secondary antibody was incubated with cells. MFI of the samples was analyzed with Flow Cytometry and cells-based affinity was calculated.

Binder	FACS MFI (human CD24 [1])	FACS MFI (human CD24 [2])	EC50 (human CD24 [3])	EC50 (human CD24 [4])	EC50 (human CD24 [5])	Max MFI (human CD24 [5])	FACS MFI (human CD24 [6])	FACS MFI (human CD24 [7])	EC50 (human CD24 [8])	Max MFI (human CD24 [8])	EC50 (human CD24 [9])	EC50 (human CD24 [10])	Max MFI (human CD24 [10])	FACS MFI (human CD24 [11])	EC50 (human CD24 [12])	Max MFI (human CD24 [12])	EC50 (human CD24 [13])	FACS MFI (human CD24 [13])	EC50 (human CD24 [14])	Max MFI (human CD24 [14])	further results
81A1F8 (antibody, V domains shown, mouse monoclonal antibody) VH: EVQLQQSGPELVKPGASVKISCKATGYLFTGYYMNWVKQSPEKSLEWIGEINPNTGDTNNNQKFKAKATMTVDRSSSTAYMQLKRLTSEDSAVYYCVRRDYGTSLDYWGQGTTLTVSS VL: DVQITQSPSYLAASPGETITINCRASKSINKYLAWYQEKPGKTNKLLIHSGSTLQSGIPSRFSGSRSGTDFTLTISNLEPEDFAMYYCQQHNEYPITFGAGTKLELK	22200	11500	3.31 nM	3 nM	2.37 nM	8660	24800	10600	1.9 nM	24800	2.03 nM	2.93 nM	3050	10300	1.7 nM	10300	5.23 nM	24900	1.52 nM	45900	
56A7E3 (antibody, V domains shown, mouse monoclonal antibody) VH: EVQLQQSGPELVKPGASVKIPCKASGYTFTAYNMDWVKQSHGMSLEWIGDINPINGGTIYNQNFEGKATLTVDKSSSTAYLELRSLTSEDTAVYYCARRGSYYYGSSHYALDFWGQGTSVSVSS VL: DIQMTQITSSLSASLGDRVTITCRASQDISNYLNWYQQKPDGTVKLLIYYTSRLLSGVPSRFSGSGSGTDYSLTISNLEQEDIATYFCQQDHTLPRTFGGGTKLEIR	18500	9190	31.6 nM	81.7 nM	92.4 nM	3320	74600	2190	20.9 nM	74600	93.1 nM	18.1 nM	1460	26400	7.52 nM	26400	16.7 nM	15300	4.85 nM	36700	
71A4F12 (antibody, V domains shown, mouse monoclonal antibody) VH: EVQLQQSGPELVKPGASVKIPCKASGYTFTAYNMDWVKQSHGMSLEWIGDINPNNGDTVYNQNFKGKATLTVDKSSSTAYMELRSLTSEDTAVYYCARRGSYYYGSSHYALDFWGQGTSVSVSS VL: DIQMTQITSSLSASLGNRVTISCRASQDIRNYLNWYQQKPDGTVKLLIYYTSRLLSGVPSRFSGSGSGTDYSLTISNLEQEDIATYFCQQDNSLPRTFGGGTRLEIR	18600	2420	39.7 nM	121 nM	1.97 nM	4410	45000	7200	6.28 nM	45000	71.9 nM	5.46 nM	4780	7350	6.74 nM	39400	11.7 nM	32500	1.72 nM	28800	Max MFI (human CD24 [4]): 12600
58F10-1F6 (antibody, V domains shown, mouse monoclonal antibody) VH: EVQLRQSGPELVKPGAAVKISCKASGYSFTGYHMNWVKQSPEKSLEWIGEINPITSGITYNQIFKAKATLTVDKSSSTAYLQLKSLTSEDSAVYYCTRRDYGTSLDYWGQGTTLTVSS VL: DIQMTQITSSLSASLGDRVTITCRASQDISNYLNWYQQKPDGTVKLLIYYTSRLLSGVPSRFSGSGSGTDYSLTISNLEQEDIATYFCQQDHTLPRTFGGGTKLEIR	34200	17400	22.4 nM	43.4 nM	12.6 nM	12600	20900	17500	8.72 nM	60300	53.1 nM	10.8 nM	4900	7420	24.1 nM	58200	38.9 nM	49800	9.7 nM	28100	
73H5-1G2 (antibody, V domains shown, mouse monoclonal antibody) VH: QVQLKQSGPGLVQPSQSLSITCTVSGFSLTNYGVHWIRQSPGKGLEWLGVIWRGGSTDYNAAFMSRLSITKDNSKSQVFFQMNSLQAADTAIYYCANNYGYDCFAYWGQGTLVTVSA VL: DVQITQSPSYLAASPGETITINCRASKSIIKYLAWYQEKPGKTNKLLIYSGSTLQSGIPSRFSGSGSGTDFTLTITSLEPEDFAMYYCQQHNEYPLTFGAGTRLELK	6360	373	24.6 nM	45.9 nM	36 nM	5700	58500	2200	33.8 nM	58500	31.3 nM	40 nM	4820	20100	16.2 nM	20100	28 nM	6400	23.8 nM	19900	Max MFI (human CD24 [3]): 7440
110D4G4 (antibody, V domains shown, mouse monoclonal antibody; also called mAb-110D4G4) VH: EVQLQQSGPGLVKPGASVKISCRASGYLFTGYYMNWVKQSPEKSLEWIGEINPNTGDPRYDQKFKAKATLTVDRSSSTAYMHLKSLTSEDSAVYFCARRDYGTSLDYWGQGTTLTVTS VL: DVQITQSPSYLAASPGETITINCRASKSISKYLAWYQEKPGKTNKLLIYSGSTLQSGIPSRFSGSGSGSDFTLTISSLEPEDFAMYYCQQHNEYPLTFGAGTKLELK	47100	21200	5.89 nM	5.2 nM	2.72 nM	18400	76200	24900	3.27 nM	76200	5.22 nM	2.92 nM	5610	56500	6.55 nM	56500	12.2 nM	52800	1.52 nM	28900	
81A1F8-VH-11/VL-21 (antibody, V domains shown, humanized antibody based on 81A1F8; also called 81A1F8-1121) VH: QVQLVQSGAEVKKPGASVKVSCKASGYLFTGYYMNWVRQAPGQGLEWMGEINPNTGDTNNNQKFKARVTMTVDRSISTAYMELSRLRSDDTAVYYCVRRDYGTSLDYWGQGTLVTVSS VL: DVQITQSPSFLSASVGDRVTITCRASKSINKYLAWYQQKPGKAPKLLIHSGSTLQSGVPSRFSGSRSGTEFTLTISSLQPEDFATYYCQQHNEYPITFGQGTKLEIK																					binding result (human CD24 [15]): binds
81A1F8-VH-11/VL-41 (antibody, V domains shown, humanized antibody based on 81A1F8) VH: QVQLVQSGAEVKKPGASVKVSCKASGYLFTGYYMNWVRQAPGQGLEWMGEINPNTGDTNNNQKFKARVTMTVDRSISTAYMELSRLRSDDTAVYYCVRRDYGTSLDYWGQGTLVTVSS VL: DVQITQSPSTLSASVGDRVTITCRASKSINKYLAWYQQKPGKAPKLLIHSGSTLQSGVPSRFSGSRSGTEFTLTISSLQPDDFATYYCQQHNEYPITFGQGTKLEIK																					binding result (human CD24 [15]): binds
81A1F8-VH-21/VL-21 (antibody, V domains shown, humanized antibody based on 81A1F8; also called 81A1F8-2121) VH: QVQLVQSGAEVKKPGASVKVSCKASGYLFTGYYMNWVRQAPGQGLEWMGEINPNTGDTNNNQKFKARVTMTVDRSTSTAYMELSSLRSEDTAVYYCVRRDYGTSLDYWGQGTLVTVSS VL: DVQITQSPSFLSASVGDRVTITCRASKSINKYLAWYQQKPGKAPKLLIHSGSTLQSGVPSRFSGSRSGTEFTLTISSLQPEDFATYYCQQHNEYPITFGQGTKLEIK																					binding result (human CD24 [15]): binds
